Measurements from patent US20220380776A1.

Target: CD46 (UniProt P15529)
Experiment: Kd, method not stated (column head 'Kd (Oleks)')

Chain of UniProt P15529 (P15529 35-343 limits assumed): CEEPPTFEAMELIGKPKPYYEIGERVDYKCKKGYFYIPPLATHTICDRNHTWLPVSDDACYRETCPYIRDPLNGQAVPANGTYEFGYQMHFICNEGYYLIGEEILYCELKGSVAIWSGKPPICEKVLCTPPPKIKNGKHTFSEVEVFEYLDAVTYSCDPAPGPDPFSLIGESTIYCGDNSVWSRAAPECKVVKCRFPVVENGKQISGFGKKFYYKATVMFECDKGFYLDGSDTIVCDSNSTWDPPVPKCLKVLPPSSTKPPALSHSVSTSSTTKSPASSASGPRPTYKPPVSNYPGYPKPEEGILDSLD

## Ad35 knob A8: Ile192Val Ile256Val
  Kd: 0.0137 µM
